Holding throughout (test): FRET or BRET; BRET in living HEK 293 cells; eYFP-tagged receptor and Rluc-ß-arrestin co-transfected at a ratio of 4:1; Hanks' balanced salt solution; coelenterazine 2.5 uM for 10 min at 37 °C, then ghrelin for 5 min; concentration response curves for ghrelin; emissions at 535 and 475 nm
Background: Bioluminescence resonance energy transfer reports proximity on the nanometre scale.

Assay [1] deals with GHSR1a-Total (Ser349, Thr350, Ser362, Ser363 and Thr366 substituted by Ala) fused at its C terminus to eYFP (UniProt Q92847).
Assay [2] has as its target GHSR1a-TM (triple mutant of Ser362, Ser363 and Thr366 to Ala) fused at its C terminus to eYFP (UniProt Q92847).
In assay [3] the target is T1, GHSR1a-DM (double mutant Thr350Ala, Ser349Ala) fused at its C terminus to eYFP (UniProt Q92847 1-366, Thr350Ala | Ser349Ala).
T1 construct: also called YFP-GHSR1a-DM; source: HEK 293, transiently co-transfected (Lipofectamine 2000), in living cells; not shown: eYFP, C-terminal, kept
As to conditions: partners not purified.

Assay [4] deals with T2, GHSR1a-WT fused at its C terminus to enhanced yellow fluorescent protein (eYFP) (UniProt Q92847 1-366).
T2 construct: amplified by PCR with primers that removed the stop codon, subcloned upstream of full-length eYFP in pcDNA3.1; Phosphorylated in cells after ghrelin at Ser349, Thr350, Ser362, Ser363 and Thr366 (mass spectrometry on the EGFP-tagged receptor); also called YFP-GHSR1a-WT; YFP tagged-GHSR1a-WT; source: HEK 293, transiently co-transfected (Lipofectamine 2000), in living cells; not shown: eYFP, …
As to conditions: partners not purified.

The values below come from article PMC4776146, “Distinct phosphorylation sites on the ghrelin receptor, GHSR1a, establish a code that determines the functions of ß-arrestins” (Scientific Reports, 2016).

Sequence of GHSR1a-Total (Ser349, Thr350, Ser362, Ser363 and Thr366 substituted by Ala) fused at its C terminus to eYFP (Q92847 other isoform, or with tags, fused parts or gaps): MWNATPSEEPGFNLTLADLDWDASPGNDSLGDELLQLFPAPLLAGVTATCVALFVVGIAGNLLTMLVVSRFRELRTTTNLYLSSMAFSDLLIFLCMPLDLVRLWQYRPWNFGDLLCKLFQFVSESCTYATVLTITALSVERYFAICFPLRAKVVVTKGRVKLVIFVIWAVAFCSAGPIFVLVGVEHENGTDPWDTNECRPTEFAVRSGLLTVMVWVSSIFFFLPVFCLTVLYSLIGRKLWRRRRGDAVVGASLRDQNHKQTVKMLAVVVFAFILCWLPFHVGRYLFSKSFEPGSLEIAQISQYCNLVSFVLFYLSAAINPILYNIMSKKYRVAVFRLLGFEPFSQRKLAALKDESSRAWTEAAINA
Sequence of GHSR1a-TM (triple mutant of Ser362, Ser363 and Thr366 to Ala) fused at its C terminus to eYFP (Q92847 other isoform, or with tags, fused parts or gaps, change not shown): as the sequence (Q92847 other isoform, or with tags, fused parts or gaps) above, with A349S, A350T counted along it
T1 sequence (Q92847 whole entry S349A/T350A, the tested form may be a part): as the sequence (Q92847 other isoform, or with tags, fused parts or gaps) above, with A362S, A363S, A366T counted along it
T2 sequence (Q92847 whole entry, the tested form may be a part): as the sequence (Q92847 other isoform, or with tags, fused parts or gaps) above, with A349S, A350T, A362S, A363S, A366T counted along it

For the molecule “ß-arrestin 2 tagged with Rluc at its C-terminus (from UniProt P32121 1-409) (natural protein)”, in assay [1], the efficacy of recruitment, percent of GHSR1a-WT response (BRET) (% of GHSR1a-WT response) worked out at 18 and the pEC50 of ghrelin for ß-arrestin 2 recruitment (BRET) came to 6.04. Besides, in assay [2], the efficacy of recruitment, percent of GHSR1a-WT response (BRET) (% of GHSR1a-WT response) was 24.6 and the pEC50 of ghrelin for ß-arrestin 2 recruitment (BRET) came to 6.97.

B1: Renilla luciferase-tagged ß-arrestin 1 (natural protein, UniProt P49407 1-418, looked up)
chain: MGDKGTRVFKKASPNGKLTVYLGKRDFVDHIDLVDPVDGVVLVDPEYLKERRVYVTLTCAFRYGREDLDVLGLTFRKDLFVANVQSFPPAPEDKKPLTRLQERLIKKLGEHAYPFTFEIPPNLPCSVTLQPGPEDTGKACGVDYEVKAFCAENLEEKIHKRNSVRLVIRKVQYAPERPGPQPTAETTRQFLMSDKPLHLEASLDKEIYYHGEPISVNVHVTNNTNKTVKKIKISVRQYADICLFNTAQYKCPVAMEEADDTVAPSSTFCKVYTLTPFLANNREKRGLALDGKLKHEDTNLASSTLLREGANREILGIIVSYKVKVKLVVSRGGLLGDLASSDVAVELPFTLMHPKPKEEPPHREVPENETPVDTNLIELDTNDDDIVFEDFARQRLKGMKDDKEEEEDGTGSPQLNNR
notes: plasmid provided by Prof; Mark Scott (Institut Cochin, Paris); also called Rluc-ß-arrestin 1; source: HEK 293, transiently co-transfected (Lipofectamine 2000), in living cells
B1: the “pEC50 of ghrelin for ß-arrestin 1 recruitment (BRET)” value came to 7.1 in assay [3], 7.54 in assay [4], 6.01 in assay [1] and 7.13 in assay [2]. Moreover, the efficacy of recruitment, percent of GHSR1a-WT response (BRET) (% of GHSR1a-WT response) in assay [1] was determined as 31.8; in assay [2] it was 36.8.
